Substitutions are numbered along the chain they refer to.
T1: human GFRAL (human, UniProt Q6UXV0 19-394)
T1 sequence (looked up): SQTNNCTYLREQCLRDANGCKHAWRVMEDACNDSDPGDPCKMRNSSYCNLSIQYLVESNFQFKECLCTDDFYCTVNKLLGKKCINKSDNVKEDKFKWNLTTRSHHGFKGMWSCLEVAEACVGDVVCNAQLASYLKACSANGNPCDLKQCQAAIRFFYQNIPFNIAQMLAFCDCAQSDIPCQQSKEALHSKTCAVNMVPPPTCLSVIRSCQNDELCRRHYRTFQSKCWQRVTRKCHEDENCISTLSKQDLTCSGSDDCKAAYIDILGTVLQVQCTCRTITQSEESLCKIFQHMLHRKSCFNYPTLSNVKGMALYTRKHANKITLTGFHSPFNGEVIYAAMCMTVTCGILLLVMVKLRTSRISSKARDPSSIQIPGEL

B1: MLC105 (ligand)
chain: HGEGTFTSDVSSYLEEQAAKEFIAWLVRGGGGAQPGAQPGAQPGAQPCQAPGAQPGAQPGAQPGQEPGAQPGQEPGAQPGQEPGAQPGQEPGAQPGQEPGAQPGQEPGAQPARQGDHCPLGPGRCCRLHTVRASLEDLGWADWVLSPREVQVTMCIGACPSQFRAANLHAQIKTSLHRLKPDTVPAPCCVPASYNPMVLIQKTDTGVSLQTYDDLLAKDCHCI
modifications: Moiety B (HOOC-(CH2)16-CO-gGlu-2XADO-EDA-CO-CH2) on 17C of Linker (48C of fusion polypeptide)
B2: MLC093 (ligand)
chain: B1 chain with C48G, Q49A, A50Q, G64C
modifications: Moiety B (HOOC-(CH2)16-CO-gGlu-2XADO-EDA-CO-CH2) on 33C of Linker (64C of fusion polypeptide)
B3: MLC092 (ligand)
chain: B1 chain with C48G, Q49A, A50Q, E66C
modifications: Moiety C (HOOC-(CH2)20-CO-gGlu-2XADO-EDA-CO-CH2) on 35C of Linker (66C of fusion polypeptide)
B4: MLC111 (ligand)
chain: B1 chain with C48G, Q49A, A50Q, E82C, A85Q, Q86E
modifications: Moiety B (HOOC-(CH2)16-CO-gGlu-2XADO-EDA-CO-CH2) on 51C of Linker (82C of fusion polypeptide)
B5: MLC087 (ligand)
chain: B1 chain with C48G, Q49A, A50Q, G72C
modifications: Moiety B (HOOC-(CH2)16-CO-gGlu-2XADO-EDA-CO-CH2) on 41C of Linker (72C of fusion polypeptide)
B6: MLC089 (ligand)
chain: B1 chain with C48G, Q49A, A50Q, A69Q, Q70C
modifications: Moiety B (HOOC-(CH2)16-CO-gGlu-2XADO-EDA-CO-CH2) on 39C of Linker (70C of fusion polypeptide)
B7: MLC091 (ligand)
chain: B1 chain with C48G, Q49A, A50Q, E66C
modifications: Moiety B (HOOC-(CH2)16-CO-gGlu-2XADO-EDA-CO-CH2) on 35C of Linker (66C of fusion polypeptide)
B8: MLC107 (ligand)
chain: B1 chain with C48G, Q49A, A50Q, G56C, A57Q, Q58A
modifications: Moiety B (HOOC-(CH2)16-CO-gGlu-2XADO-EDA-CO-CH2) on 25C of Linker (56C of fusion polypeptide)
B9: MLC080 (ligand)
chain: HGEGTFTSDVSSYLEEQAAKEFIAWLVRGGGGQEPGAQPGQEPGAQPGQEPGAQPGQEPGAQPGQCPGAQPGQEPGAQPGQEPGAQPGAQPGAQPGAQPGAQPGAQPGAQPARQGDHCPLGPGRCCRLHTVRASLEDLGWADWVLSPREVQVTMCIGACPSQFRAANLHAQIKTSLHRLKPDTVPAPCCVPASYNPMVLIQKTDTGVSLQTYDDLLAKDCHCI
modifications: Moiety B (HOOC-(CH2)16-CO-gGlu-2XADO-EDA-CO-CH2) on 35C of Linker (66C of fusion polypeptide)
B10: MLC081 (ligand)
chain: B9 chain
modifications: Moiety C (HOOC-(CH2)20-CO-gGlu-2XADO-EDA-CO-CH2) on 35C of Linker (66C of fusion polypeptide)
B11: Native GDF15 (ligand)
chain: ARNGDHCPLGPGRCCRLHTVRASLEDLGWADWVLSPREVQVTMCIGACPSQFRAANMHAQIKTSLHRLKPDTVPAPCCVPASYNPMVLIQKTDTGVSLQTYDDLLAKDCHCI
B12: MLC123 (ligand)
chain: B1 chain with C48G, Q49A, A50Q, A109Q, Q110C
modifications: Moiety B (HOOC-(CH2)16-CO-gGlu-2XADO-EDA-CO-CH2) on 79C of Linker (110C of fusion polypeptide)
B13: MLC126 (ligand)
chain: B1 chain with C48G, Q49A, A50Q, G104C
modifications: Moiety B (HOOC-(CH2)16-CO-gGlu-2XADO-EDA-CO-CH2) on 73C of Linker (104C of fusion polypeptide)
B14: MLC122 (ligand)
chain: B1 chain with G36C, A37Q, Q38A, C48G, Q49A, A50Q
modifications: Moiety B (HOOC-(CH2)16-CO-gGlu-2XADO-EDA-CO-CH2) on 5C of Linker (36C of fusion polypeptide)
B15: MLC127 (ligand)
chain: B1 chain with K20C, C48G, Q49A, A50Q
modifications: Moiety B (HOOC-(CH2)16-CO-gGlu-2XADO-EDA-CO-CH2) on 26C of GLP-1 (20C of fusion polypeptide)

Each binder was assayed against T1, human GFRAL (assay: cell-based or functional assay).
For B1, the “GDF15 activity (EC50, pM)” value was 50 pM. For B2, the “GDF15 activity (EC50, pM)” value was 54.8 pM. With B3 the “GDF15 activity (EC50, pM)” value was 48.6 pM. B4 was tested, and the “GDF15 activity (EC50, pM)” value was 54.9 pM. In the case of B5, the “GDF15 activity (EC50, pM)” value is reported as 23.8 pM. For B6, the “GDF15 activity (EC50, pM)” value was 42.9 pM. B7 was tested, and the “GDF15 activity (EC50, pM)” value was 34.9 pM. With B8 the “GDF15 activity (EC50, pM)” value was 59.3 pM. For B9, the “GDF15 activity (EC50, pM)” value was 86.8 pM. B10 was tested, and the “GDF15 activity (EC50, pM)” value was 69.8 pM. In the case of B11, the “GDF15 activity (EC50, pM)” value is reported as 8.1 pM.

These binders were tested against T2, human GLP-1 receptor (human, UniProt P43220 24-463) (assay: cell-based or functional assay).
In the case of B1, the “GLP-1 activity (EC50, pM)” value is reported as 10 pM. For B2, the “GLP-1 activity (EC50, pM)” value was 1.4 pM. For B3, the “GLP-1 activity (EC50, pM)” value was 2.2 pM. With B4 the “GLP-1 activity (EC50, pM)” value was 11 pM. B5 was tested, and the “GLP-1 activity (EC50, pM)” value was 1.4 pM. In the case of B6, the “GLP-1 activity (EC50, pM)” value is reported as 1.2 pM. B7 was tested, and the “GLP-1 activity (EC50, pM)” value was 2 pM. B8 was tested, and the “GLP-1 activity (EC50, pM)” value was 1.1 pM. B9 was tested, and the “GLP-1 activity (EC50, pM)” value was 1.6 pM. In the case of B10, the “GLP-1 activity (EC50, pM)” value is reported as 1.2 pM.

Target: T1, human GFRAL
Assay: cell-based or functional assay
Remark: another data set of the same source
With B1 the “GDF15 activity (EC50, pM, 1% HSA)” value was 55.5 pM. In the case of B12, the “GDF15 activity (EC50, pM, 1% HSA)” value is reported as 1360 pM. For B2, the “GDF15 activity (EC50, pM, 1% HSA)” value was 67.6 pM. With B4 the “GDF15 activity (EC50, pM, 1% HSA)” value was 194 pM. B5 was tested, and the “GDF15 activity (EC50, pM, 1% HSA)” value was 49.2 pM. B6 was tested, and the “GDF15 activity (EC50, pM, 1% HSA)” value was 66.2 pM. With B13 the “GDF15 activity (EC50, pM, 1% HSA)” value was 1670 pM. In the case of B8, the “GDF15 activity (EC50, pM, 1% HSA)” value is reported as 58 pM. In the case of B14, the “GDF15 activity (EC50, pM, 1% HSA)” value is reported as 70.2 pM. B15 was tested, and the “GDF15 activity (EC50, pM, 1% HSA)” value was 72.8 pM. With B11 the “GDF15 activity (EC50, pM, 1% HSA)” value was 11.3 pM.

Target: T2, human GLP-1 receptor
Assay: cell-based or functional assay
Remark: another data set of the same source
B1 was tested, and the “GLP-1 activity (EC50, pM, 1% HSA)” value was 168 pM. For B12, the “GLP-1 activity (EC50, pM, 1% HSA)” value was 9.53 pM. B2 was tested, and the “GLP-1 activity (EC50, pM, 1% HSA)” value was 27.3 pM. With B4 the “GLP-1 activity (EC50, pM, 1% HSA)” value was 7.52 pM. In the case of B5, the “GLP-1 activity (EC50, pM, 1% HSA)” value is reported as 24.4 pM. B6 was tested, and the “GLP-1 activity (EC50, pM, 1% HSA)” value was 24.4 pM. For B13, the “GLP-1 activity (EC50, pM, 1% HSA)” value was 9.67 pM. With B8 the “GLP-1 activity (EC50, pM, 1% HSA)” value was 39.9 pM. B14 was tested, and the “GLP-1 activity (EC50, pM, 1% HSA)” value was 434 pM. B15 was tested, and the “GLP-1 activity (EC50, pM, 1% HSA)” value was 872 pM.

— US20220017589A1 (BEIJING QL BIOPHARMACEUTICAL, published 2022)
